Earlier results on two molecules are cited in patent US4150121A, “Kinin containing injection composition” (THERA Gesellschaft fur Patentverwertung mbH, priority 1976, dated 1979).

Where a SMILES comes first, the peptide text is derived from it.

For this data set the following is noted: intracutaneous injection.

As to “kallidin: decapeptide kinin: Brady kinin extended at the amino end by an additional lysine residue”, the “amount causing vehement pain reactions” value is given as “about 0.1 microgram in 1 milliliter of solution”.

Consider `NC(N)=NCCC[C@H](NC(=O)[C@H](Cc1ccccc1)NC(=O)[C@@H]1CCCN1C(=O)[C@H](CO)NC(=O)[C@H](Cc1ccccc1)NC(=O)CNC(=O)[C@@H]1CCCN1C(=O)[C@@H]1CCCN1C(=O)[C@@H](N)CCCN=C(N)N)C(=O)O` [Bradykinin, (NH2) arginine - proline - proline -glycine - phenylalanine - serine - proline - phenylalanine - arginine (COOH)] (H-RPPGFSPFR-OH), for which the “amount causing vehement pain reactions” value is given as “about 0.1 microgram in 1 milliliter of solution”.
